B1: RA326 (nucleic acid)
DNA: GCTGTCACCGGAATACCAGCATCGTCTTGATGCCCTTGGAAGTCCGGTCTGATGAGTCCCTTGAGGACGAAACAGC
modifications: expressed or natural sequence
B2: RA324 (nucleic acid)
DNA: GCGCGTCCTGGATTCGCGGAAACCGGAATACCAGCATCGTCTTGATGCCCTTGGAAGTCCGGCGTACATCCAGCTGACGAGTCCCAAATAGGACGAAACGCGC
modifications: expressed or natural sequence
B3: RA328 (nucleic acid)
DNA: GCGCGTCCTGGATTCGCGGAAACGCGTACATCCAGCTGACAGTGATACCAGCATCGTCTTGATGCCCTTGGCAGCACTGAGTCCCAAATAGGACGAAACGCGC
modifications: expressed or natural sequence
B4: RA331 (nucleic acid)
DNA: GCGCGTCCTGGGAATACCAGCATCGTCTTGATGCCCTTGGAAGTCCGATTCGCGGAAACGCGTACATCCAGCTGACGAGTCCCAAATAGGACGAAACGCGC
modifications: expressed or natural sequence
B5: RA322 (nucleic acid)
DNA: GCGCGTCCTGGATTCGCGGAGAATACCAGCATCGTCTTGATGCCCTTGGAAGTCTAAACGCGTACATCCAGCTGACGAGTCCCAAATAGGACGAAACGCGC
modifications: expressed or natural sequence
B6: RA334 (nucleic acid)
DNA: GCGCGTCCTGGATTCGCGGAAACGCGTACCCGGAATACCAGCATCGTCTTGATGCCCTTGGAAGTCCGGATCCAGCTGACGAGTCCCAAATAGGACGAAACGCGC
modifications: expressed or natural sequence
B7: RA327 (nucleic acid)
DNA: GCGCGTCCTGGATTCGCGGAAACGCGTAGTGATACCAGCATCGTCTTGATGCCCTTGGCAGCACTACATCCAGCTGACGAGTCCCAAATAGGACGAAACGCGC
modifications: expressed or natural sequence
B8: RA330 (nucleic acid)
DNA: GCGCGTCCTGGGAGAATACCAGCATCGTCTTGATGCCCTTGGAAGTCTCATTCGCGGAAACGCGTACATCCAGCTGACGAGTCCCAAATAGGACGAAACGCGC
modifications: expressed or natural sequence
B9: RA320 (nucleic acid)
DNA: GCGCGTCCTGGATTCGCGGAAACGCGTACATCCAGCTGACGAGTAGTGATACCAGCATCGTCTTGATGCCCTTGGCAGCACTCCCAAATAGGACGAAACGCGC
modifications: expressed or natural sequence
B10: RA313 (nucleic acid)
DNA: GCGCGTCCTGGATTCGCGGAAACGCGTACATCCAGCTGACGAGTCCCAACGGAATACCAGCATCGTCTTGATGCCCTTGGAAGTCCGATAGGACGAAACGCGC
modifications: expressed or natural sequence
B11: RA336 (nucleic acid)
DNA: GCGCGTCCTGGATTCGCGGAAAGTGATACCAGCATCGTCTTGATGCCCTTGGCAGCACTACGCGTACATCCAGCTGACGAGTCCCAAATAGGACGAAACGCGC
modifications: expressed or natural sequence
B12: RA337 (nucleic acid)
DNA: GCGCGTAGAATACCAGCATCGTCTTGATGCCCTTGGAAGTCTCCTGGATTCGCGGAAACGCGTACATCCAGCTGACGAGTCCCAAATAGGACGAAACGCGC
modifications: expressed or natural sequence
B13: RA329 (nucleic acid)
DNA: GCGCGTCCTGGATTCGCGGAAACGCGTACATCCAGCTGACGAGTCCCAAATAGGACGAAACAGTGATACCAGCATCGTCTTGATGCCCTTGGCAGCACTGCGC
modifications: expressed or natural sequence
B14: RA318 (nucleic acid)
DNA: GCGGAATACCAGCATCGTCTTGATGCCCTTGGAAGTCCGCGCGTCCTGGATTCGCGGAAACGCGTACATCCAGCTGACGAGTCCCAAATAGGACGAAACGCGC
modifications: expressed or natural sequence
B15: RA333 (nucleic acid)
DNA: GCGCGTCCTGGATTCGCGGAAACGCGTACATCCAGCTGACGAGTCCCAAAGAATACCAGCATCGTCTTGATGCCCTTGGAAGTCTATAGGACGAAACGCGC
modifications: expressed or natural sequence
B16: RA325 (nucleic acid)
DNA: GCGCGTCCTGGATTCGCGGAAACGCGTACATCCAGCTGACGAGTCCCAAATAGGAGGAATACCAGCATCGTCTTGATGCCCTTGGAAGTCCCAAAACGCGC
modifications: expressed or natural sequence
B17: RA323 (nucleic acid)
DNA: GCGCGTCCTGGATTCGCGCGGAATACCAGCATCGTCTTGATGCCCTTGGAAGTCCGGAAACGCGTACATCCAGCTGACGAGTCCCAAATAGGACGAAACGCGC
modifications: expressed or natural sequence
B18: RA316 (nucleic acid)
DNA: GCGCGTCCTGGATGGAATACCAGCATCGTCTTGATGCCCTTGGAAGTCCTCGCGGAAACGCGTACATCCAGCTGACGAGTCCCAAATAGGACAAAACGCGC
modifications: expressed or natural sequence
B19: RA338 (nucleic acid)
DNA: GCGCGTCCTGGATTCGCGGAAACGAGAATACCAGCATCGTCTTGATGCCCTTGGAAGTCTCGCGCGTACATCCAGCTGACGAGTCCCAAATAGGACGAAACGCGC
modifications: expressed or natural sequence
B20: RA031 (nucleic acid)
DNA: GCGCGTCCGAGAATACCAGCATCGTCTTGATGCCCTTGGAAGTCTCTGGATTCGCGGAAACGCGTACATCCAGCTGACGAGTCCCAAATAGGACGAAACGCGC
modifications: expressed or natural sequence
B21: RA321 (nucleic acid)
DNA: GCGCGTCCTGGATTCGCGGAAACGCGTACATCCAGCTAGTGATACCAGCATCGTCTTGATGCCCTTGGCAGCACTGACGAGTCCCAAATAGGACGAAACGCGC
modifications: expressed or natural sequence
B22: RA314 (nucleic acid)
DNA: GCGCGTCCTGGATTCGCGGAAACGCGTACATCCAGCTGACGAGTCCCAAATAGGGAATACCAGCATCGTCTTGATGCCCTTGGAAGTCCGACGAAACGCGC
modifications: expressed or natural sequence
B23: RA319 (nucleic acid)
DNA: GCGCGTCCTGGATTCGCGGAAACGCGTACAGAGAATACCAGCATCGTCTTGATGCCCTTGGAAGTCTCTCCAGCTGACGAGTCCCAAATAGGACGAAACGCGC
modifications: expressed or natural sequence
B24: RA032 (nucleic acid)
DNA: GCGCGTCCTGGATTCGCGGAAAAGTGATACCAGCATCGTCTTGATGCCCTTGGCAGCACTCGCGTACATCCAGCTGACGAGTCCCAAATAGGACGAAACGCGC
modifications: expressed or natural sequence
B25: RA339 (nucleic acid)
DNA: GCGCGTCCTGGATTGGAATACCAGCATCGTCTTGATGCCCTTGGAAGTCCCGCGGAAACGCGTACATCCAGCTGACGAGTCCCAAATAGGACGAAACGCGC
modifications: expressed or natural sequence
B26: RA317 (nucleic acid)
DNA: GCGCGTCCTGGATTCGCGGAAACGCGTACATCCAGCTGACGAGTCCCAAATAGCCGGAATACCAGCATCGTCTTGATGCCCTTGGAAGTCCGGGACGAAACGCGC
modifications: expressed or natural sequence
B27: RA315 (nucleic acid)
DNA: GCGCGTCCTGGATTCGCGGAAACGCGTACATCCAGCTGACGAGTCCCAAATAGGACGAACGAGAATACCAGCATCGTCTTGATGCCCTTGGAAGTCTCGACGCGC
modifications: expressed or natural sequence
B28: RA335 (nucleic acid)
DNA: GCGCGTCCTGGATTCGCGGAAACGCGTAGGAATACCAGCATCGTCTTGATGCCCTTGGAAGTCCCATCCAGCTGACGAGTCCCAAATAGGACGAAACGCGC
modifications: expressed or natural sequence
B29: RA332 (nucleic acid)
DNA: GCGCGTCCTGGATTCGCGGAAACGCGTACATCCAGCTGACGAGTCGGAATACCAGCATCGTCTTGATGCCCTTGGAAGTCCCCAAATAGGACGAAACGCGC
modifications: expressed or natural sequence

System: Renilla luciferase RNA
Test: Barcoded aptazyme variant library screen: un-cleaved Renilla luciferase RNA by barcode read counts, HEK293-T cells
Type: cell-based
Conditions: triplicate
Summary of the method: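 Barcode sequencing of cDNA versus DNA, normalized per aptazyme, gave the un-cleaved Renilla luciferase RNA fraction and fold-change with versus without theophylline (triplicates). Library: T3H48 ribozyme with one of seven theophylline aptamer variants inserted at each position, placed in the Renilla 3′ UTR of a dual-luciferase vector.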

[1] = un-cleaved Renilla luciferase RNA by barcode read counts, with 1 mM theophylline (ON) over without theophylline (OFF), HEK293-T cells
[2] = un-cleaved Renilla luciferase RNA, HEK293-T cells cultured with 1 mM theophylline (ON) over without theophylline (OFF), barcode read counts

| Molecule | Fold change in RNA expression between the ON state and the OFF state [1] | Fold change in RNA expression between the ON state and the OFF state [2] [fold] |
| --- | --- | --- |
| B1 | 0.9 | – |
| B2 | 0.9 | – |
| B3 | 0.9 | – |
| B4 | 0.9 | – |
| B5 | 0.9 | – |
| B6 | 0.9 | – |
| B7 | 0.9 | – |
| B8 | 0.9 | – |
| B9 | 0.9 | – |
| B10 | 1.0 | – |
| B11 | 0.9 | – |
| B12 | 0.9 | – |
| B13 | 0.9 | – |
| B14 | 0.9 | – |
| B15 | 0.9 | – |
| B16 | 0.9 | – |
| B17 | 0.9 | – |
| B18 | 0.9 | – |
| B19 | 0.9 | – |
| B20 | – | 2.3 |
| B21 | 0.9 | – |
| B22 | 1.0 | – |
| B23 | 0.9 | – |
| B24 | – | 2.3 |
| B25 | 0.9 | – |
| B26 | 0.9 | – |
| B27 | 1.0 | – |
| B28 | 0.9 | – |
| B29 | 0.9 | – |

— US20260167959A1, “APTAZYME-BASED REGULATABLE GENE EXPRESSION SYSTEMS” (REJUVENATE BIO INC, priority 2022, published 2026)
